# From US12503518B2, “Heparanase-neutralizing A54 monoclonal antibody” (TECHNION RESEARCH & DEVELOPMENT FOUNDATION LIMITED, priority 2020, dated 2025)
# Key:
# [1] = tested on: 4T1 breast carcinoma cells; experiment: 4T1 breast carcinoma spontaneous metastasis, orthotopic syngeneic Balb/c model; assay type: in vivo, mouse
# Description: 4T1 mouse breast carcinoma (spontaneous metastasis). Luciferase labeled 4T1 breast carcinoma cells (1×10^5/Balb/c mouse) are injected directly into the third mammary fat pad and treatment of mice (PBS control vs. mAb A54 500 μg/mouse, 3 times/week began 3 days after 4T1 cell inoculation. Mice were randomized into two groups of 6 mice, 4 days postinoculation (Day 0). On day 15 of the study the mammary fat pad including the primary tumor was excised on all mice while under 2% Isoflurane anaesthetic. Mice were treated with mAb A54 as described above and IVIS bioluminescent imaging is performed 12 and 18 days after mastectomy. At termination, mice are sacrificed and the number of overt macrometastases on the surface of the lungs was enumerated manually (Hammond et al., PLoS One 2012; 7(12):e52175).
# IVIS imaging. Bioluminescent imaging of luciferase-expressing tumors is performed with a highly sensitive, cooled charge coupled device (CCD) camera mounted in a light-tight specimen box (IVIS; Xenogen Corp., Waltham, MA). Imaging is performed in real time, is non-invasive and provides quantitative data. Briefly, mice are injected intraperitoneally with D-luciferin substrate at 150 mg/kg, anesthetized and placed onto a warmed stage inside the light-tight camera box, with continuous exposure to isoflurane (EZAnesthesia, Palmer, PA). Light emitted from the bioluminescent cells is detected by the IVIS camera system with images quantified for tumor burden using a log-scale color range set at 5×10^4 to 1×10^7 and measurement of total photon counts per second (PPS) using Living Image software (Xenogen).
# In subsequent studies, the effect of mAb A54 on cancer metastasis, the hallmark of heparanase activity, was investigated. A syngeneic breast carcinoma model was applied, which resembles the scenario in humans. Briefly, luciferase labeled 4T1 breast carcinoma cells (0.5×10^5) were orthotopically injected into the third mammary fat pad of Balb/c mice. Treatment of the mice (PBS control vs. mAb A54; 500 μg/mouse, 3 times/week) began 3 days after 4T1 cell inoculation. […] On day 15 of the study the mammary fat pad including the primary tumor was excised from all mice (under 2% Isoflurane anesthetic) and weighed. […] Mice were further treated with mAb A54 as described above and IVIS bioluminescent imaging was performed on day 35 (e.g., […]).
# [2] = tested on: Luc-CAG human myeloma cells; experiment: CAG myeloma tumor growth in NOD/SCID mice, IVIS imaging; assay type: in vivo; conditions: 500 μg/mouse, 3 times/week from day 3; evaluated 3 weeks later; vs PBS; P=0.02
# Description: CAG myeloma. Luciferase-labeled CAG human myeloma cells (5×10^6) are injected into the tail vein of NOD/SCID mice. Three days after cell inoculation, mice are randomly assigned to 2 cohorts (5-10 mice each) receiving (a) vehicle (PBS); and (b) A54 mAb (500 μg/mouse, 3 times/week). Tumor development is inspected (once a week) by IVIS imaging following administration of luciferin (see below). At termination, mice are sacrificed the backbones are excised, fixed in formalin and following de-calcification with 10% EDTA solution are embedded in paraffin and subjected to histological and immunohistochemical analyses.
# (§1) IVIS imaging. […] Imaging is performed in real time, is non-invasive and provides quantitative data. […] Light emitted from the bioluminescent cells is detected by the IVIS camera system with images quantified for tumor burden using a log-scale color range set at 5×10^4 to 1×10^7 and measurement of total photon counts per second (PPS) using Living Image software (Xenogen).
# The ability of mAb A54 to attenuate myeloma tumor development over time was examined. […] Tumor growth was evaluated 3 weeks later by IVIS imaging (FIGS. 5A and 5B). Quantification of luciferase signals is also shown graphically (FIG. 5C). […]
# [3] = tested on: U87 glioma cells; experiment: Matrigel invasion assay; assay type: cell-based, human; conditions: antibody 2 g, 6 h, vs control mouse IgG; p=0.001; FIG. 4C
# Description: Matrigel invasion assay. Invasion assay was performed using modified Boyden chambers with polycarbonate Nucleopore membrane, essentially as described (Arvatz et al. 2011, ibid.). Briefly, filters (6.5 mm in diameter, 8 μm pore-size) were coated with Matrigel (30 μl); Cells (2×10^5) in 100 μl of serum-free medium were seeded in triplicate on the upper part of each chamber in the presence of the indicated antibody, and the lower compartment was filled with 600 μl medium supplemented with 10% FCS. After incubation for 5 h at 37° C. in a 5% CO2 incubator, non-invading cells on the upper surface of the filter were wiped with a cotton swab, and migrated cells on the lower surface of the filter were fixed, stained with 0.5% crystal violet (Sigma) and counted by examination of at least seven microscopic fields (Barash et al., J Natl Cancer Inst. 110:1102-1114, 2018).
# Thereafter, the antibody effect on cell invasion was examined. Briefly, U87 glioma cells (1×10^5) were plated onto Matrigel-coated 8-μm Transwell filters in the presence of control mouse IgG or mAb A54 ([…]). Invading cells adhering to the lower side of the membrane were visualized after 6 h (FIGS. 4A-B) and quantified (FIG. 4C; number of invading cells per high power field; *p=0.001) as described in ‘Methods’.
# [4] = tested on: Luc-U87 human glioma cells; experiment: U87 glioma tumor growth in NOD/SCID mice, IVIS imaging; assay type: in vivo; conditions: s.c. tumors, 500 μg/mouse, 3 times/week; vs PBS; P=0.04
# Description: U87 glioma. Cells from exponential cultures of Luciferase labeled U87 glioma cells were detached with trypsin/EDTA, washed with PBS and brought to a concentration of 5×10^7 cells/ml. Cell suspension (5×10^6/0.1 ml) was inoculated subcutaneously at the right flank of 5-weeks old female SCID/Beige mice (n=7). Three days after cell inoculation, mice are randomly assigned to 2 cohorts (5-10 mice each) receiving (a) vehicle (PBS); and (b) A54 mAb (500 μg/mouse, 3 times/week). Tumor development is inspected (once a week) by IVIS imaging following administration of luciferin (see below) as described (Barash et al. FASEB J 2010; 24:1239-48, Barash et al., J Natl Cancer Inst. 110:1102-1114, 2018). […]
# as §1
# Similarly, Luc-U87 human glioma cells (5×10^6/0.1 ml) were inoculated subcutaneously (s.c.) at the right flank of 5-weeks old female NOD/SCID mice (n=5). […] Tumor growth was evaluated by IVIS imaging (FIGS. 5D and 5E) and quantification of luciferase signals is shown graphically (FIG. 5F).
molecule,measurement,setting,value
"mAb A54: heparanase-neutralizing murine monoclonal antibody, IgG1-Kappa; VH SEQ ID NO: 7, VL SEQ ID NO: 8; binds HBD-II of heparanase (antibody, listed as Mus musculus, V domains shown) VH: QVQLQQSGAELAKPGASVRMSCKASGYTFTNYWMHWVKQRPGQGLEWIGYINPTTGYTEYNQKFKDKATLTADKSSSTAYMQLSSLTSEDSAVYYCARGGAGYDYDEDYAMDYWGQGTSVTVSS VL: DIVLTQSPASLAVSLGQRATISCRASESVEYFGTSYMNWYQQKPGQPPKLLIYLASILESGIPARFSGSGSGTDFTLNIHPVEEEDAATYYCQQSNEDPYTFGGGTKLEIK",luciferase signal generated by the primary tumors,"[1]; 500 μg/mouse, 3 times/week, IVIS on day 12, vs PBS",no differences in the luciferase signal
same,lung metastases (IVIS signal after mastectomy),"[1]; 500 μg/mouse, 3 times/week, IVIS on day 35, two out of 5 untreated mice developed lung metastases",hardly-detected signal
same,weight of excised primary tumors,"[1]; 500 μg/mouse, 3 times/week, excised day 15, vs untreated",no difference in weights
same,inhibition of lung colonization,[1]; repeated experiment with similar results,almost complete inhibition of lung colonization
same,myeloma growth rate (IVIS luciferase signal),[2],marked reduction in the myeloma growth rate
same,attenuation of invasion of U87 glioma cells through Matrigel,[3],~90%
same,glioma tumor growth rate (IVIS luciferase signal),[4],marked inhibition of the glioma tumor growth rate
